Experiments:
[1] = biological target: T1, CD63 large extracellular domain, recombinant (Homo sapiens, UniProt P08962 103-203); experiment: ELISA; 200 nM aptamer; PBS pH 7.4, 2.0 mM MgCl2, 0.02% Tween 20, 100 ug/mL salmon sperm DNA; ELISA 0.5 h; cells at RT 1 h (Methods) or 37 C 30 min (Results); settings: protein: commercial; tags: C-terminal His; label: biotin
HER2 = HER2 (Homo sapiens (Human), UniProt P04626 23-652); experiment: ELISA; PBS pH 7.4, 2.0 mM MgCl2, 0.02% Tween 20, 100 ug/mL salmon sperm DNA; ELISA 0.5 h; cells at RT 1 h (Methods) or 37 C 30 min (Results); settings: protein: commercial
[2] = biological target: T1, CD63 large extracellular domain, …; experiment: as above; settings: protein: commercial, tags: C-terminal His

T1 sequence (P08962 103-203): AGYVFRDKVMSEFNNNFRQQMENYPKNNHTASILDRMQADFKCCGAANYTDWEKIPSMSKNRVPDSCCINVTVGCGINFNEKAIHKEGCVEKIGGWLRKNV

## TACCTACGACATGCCTGTGCTAGCCGAACCATGCTGAGGTCGT (ssDNA) [CD63-6]
[1]
  binding result: no binding

## TAACACGACAGACGTTCGGAGGTCGAACCCTGACAGCGTGGGC (ssDNA) [CD63-1]
HER2; label: 5' or 3' biotin (ELISA)
  binding result: no binding
[2]; label: 5' or 3' biotin (ELISA)
  Kd: 0.0387 µM

## TAACCACCCCACCTCGCTCCCGTGACACTAATGCTAATTCCAA (ssDNA) [CD63-2]
HER2; label: biotin (ELISA)
  binding result: no binding
[2]; label: biotin (ELISA)
  Kd: 0.0784 µM

Source: article PMC7730289, “Development of a CD63 Aptamer for Efficient Cancer Immunochemistry and Immunoaffinity-Based Exosome Isolation”
